We go through four molecules from patent US20210324099A1 (Chugai, published 2021).

The Kd is the constant that tells how readily two partners part at equilibrium. Read a high Kd as a looser complex.

Assay [1] concerns the target T1, hFcgRIIaR (human, UniProt P12318 34-217).
T1 construct: extracellular domain; also called human FcγRIIa type R (R131)
T1 sequence (looked up): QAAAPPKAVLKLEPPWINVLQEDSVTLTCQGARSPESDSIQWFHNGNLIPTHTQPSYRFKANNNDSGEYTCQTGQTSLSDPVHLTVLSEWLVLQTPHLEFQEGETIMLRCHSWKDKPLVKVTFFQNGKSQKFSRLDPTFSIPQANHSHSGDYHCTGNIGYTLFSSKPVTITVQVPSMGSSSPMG
As to the kind of experiment: SPR 25C; relative to A375-G1T3/B167-Lamlib.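 Also: SPR with antibody captured on an anti-human Fab-lambda chip, human FcγR analyte at 8 nM for FcγRIa or 1000 nM for the others, pH 7.4, FcγR RU per captured antibody unit.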
Experimental: (§1) Biacore T200 (GE Healthcare) was used to evaluate the binding activity to the respective human Fcγ receptor (hereafter referred to as FcγR). Measurement was performed at 25° C. using 50 mM phosphate, 150 mM NaCl, 0.05 w/v %-P20, pH 7.4 as buffer. About 1000 RU of antibody was captured using a sensor chip immobilized with CaptureSelect™ Human Fab-lambda Kinetics Biotin Conjugate (Thermo Fisher Scientific) as a molecule for ligand capturing. Human FcγR was diluted to 8 nM for FcγRIa and 1000 nM for other FcγR in the measurement buffer, and it was interacted to the captured antibody. The binding activity of each antibody to FcγR was assessed by calculating the binding amount of FcγR (RU) per unit amount of antibody using Biacore T200 Evaluation Software 2.0.

For assay [2], the target named is T2, hFcgRIIaH (human, UniProt P12318 34-217).
T2 construct: extracellular domain; also called human FcγRIIa type H (H131)
T2 sequence (looked up): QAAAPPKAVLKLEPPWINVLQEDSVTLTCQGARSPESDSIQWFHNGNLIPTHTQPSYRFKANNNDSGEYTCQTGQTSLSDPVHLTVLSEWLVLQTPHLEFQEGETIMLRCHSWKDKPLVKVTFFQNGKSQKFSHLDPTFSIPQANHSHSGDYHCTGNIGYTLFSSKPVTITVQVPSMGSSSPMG
In words: SPR 25C; relative to A375-G1T3/B167-Lamlib.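 Also: SPR with antibody captured on an anti-human Fab-lambda chip, human FcγR analyte at 8 nM for FcγRIa or 1000 nM for the others, pH 7.4, FcγR RU per captured antibody unit.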
Experimental: as §1

Assay [3] concerns the target T3, hFcgRIIIaV (human, UniProt P08637 17-208).
T3 construct: extracellular domain; also called human FcγRIIIa allotype V158
As to the kind of experiment: SPR 25C; relative to A375-G1T3/B167-Lamlib.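 Also: SPR with antibody captured on an anti-human Fab-lambda chip, human FcγR analyte at 8 nM for FcγRIa or 1000 nM for the others, pH 7.4, FcγR RU per captured antibody unit.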
Experimental: as §1

The target in assay [4] is T4, hFcgRIa (human, UniProt P12314 16-292).
T4 construct: extracellular domain; also called human FcγRIa; FcγRI
In words: SPR 25C; relative to A375-G1T3/B167-Lamlib.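 Also: SPR with antibody captured on an anti-human Fab-lambda chip, human FcγR analyte at 8 nM for FcγRIa or 1000 nM for the others, pH 7.4, FcγR RU per captured antibody unit.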
Experimental: as §1

Assay [5] addresses T5, hFcgRIIb (human, UniProt P31994 43-217).
T5 construct: extracellular domain; also called human FcγRIIb
T5 sequence (looked up): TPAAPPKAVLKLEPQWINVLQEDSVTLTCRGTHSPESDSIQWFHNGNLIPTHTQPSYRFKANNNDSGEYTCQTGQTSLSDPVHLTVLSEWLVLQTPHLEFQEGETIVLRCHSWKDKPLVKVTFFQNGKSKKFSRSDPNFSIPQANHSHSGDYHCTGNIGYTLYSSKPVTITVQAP
In words: SPR 25C; relative to A375-G1T3/B167-Lamlib.
Experimental: as §1

The target in assay [6] is T6, hFcgRIIIaF (human, UniProt P08637 17-208).
T6 construct: extracellular domain; also called human FcγRIIIa allotype F158
In words: SPR 25C; relative to A375-G1T3/B167-Lamlib.
Experimental: as §1

The target of another assay is human FcRn (human, UniProt P55899 24-290; P61769 21-119, limits assumed). As to the kind of experiment: SPR 25C pH 6.0, steady state.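 Also: antibody captured on chip via anti-human Fab-lambda ligand, human FcRn injected as analyte in 50 mM phosphate buffer with 150 mM NaCl and P20.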
Assay [7] has as its target T1, hFcgRIIaR. As to the kind of experiment: SPR 25C.
Experimental: as §1
Assay [8] has as its target T2, hFcgRIIaH. In words: SPR 25C.
Experimental: as §1
In assay [9] the target is T3, hFcgRIIIaV. In words: SPR 25C.
Experimental: as §1
Assay [10] deals with T4, hFcgRIa. As to the kind of experiment: SPR 25C.
Experimental: as §1
The target in assay [11] is T5, hFcgRIIb. As to the kind of experiment: SPR 25C.
Experimental: as §1
Assay [12] concerns the target T6, hFcgRIIIaF. In words: SPR 25C.
Experimental: as §1
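For binding per 1RU of antibody in this document: biacore SPR with antibody captured on an anti-human Fab lambda chip, human FcγR injected at 1000 nM (FcγRIa at 8 nM) in pH 7.4 phosphate buffer.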

Chain of human FcRn (P55899 24-290 limits assumed, chain 1 of 2): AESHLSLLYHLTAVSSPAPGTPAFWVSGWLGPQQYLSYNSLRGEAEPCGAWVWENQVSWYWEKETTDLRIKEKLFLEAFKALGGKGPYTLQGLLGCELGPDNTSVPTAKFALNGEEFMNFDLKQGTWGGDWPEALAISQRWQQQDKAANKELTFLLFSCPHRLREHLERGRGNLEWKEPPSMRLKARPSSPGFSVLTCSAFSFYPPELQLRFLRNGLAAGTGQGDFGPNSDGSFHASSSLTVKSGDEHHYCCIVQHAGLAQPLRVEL
Chain of human FcRn (P61769 21-119 limits assumed, chain 2 of 2): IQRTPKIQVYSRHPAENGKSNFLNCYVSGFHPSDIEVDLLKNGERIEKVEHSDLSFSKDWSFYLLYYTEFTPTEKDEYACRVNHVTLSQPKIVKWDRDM
T6 sequence (P08637 17-208): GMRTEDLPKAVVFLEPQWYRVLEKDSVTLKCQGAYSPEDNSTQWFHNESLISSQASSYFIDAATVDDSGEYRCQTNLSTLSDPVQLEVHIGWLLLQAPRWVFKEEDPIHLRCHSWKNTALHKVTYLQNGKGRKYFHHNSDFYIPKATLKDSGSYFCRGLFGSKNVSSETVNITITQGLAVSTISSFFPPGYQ
T4 sequence (P12314 16-292): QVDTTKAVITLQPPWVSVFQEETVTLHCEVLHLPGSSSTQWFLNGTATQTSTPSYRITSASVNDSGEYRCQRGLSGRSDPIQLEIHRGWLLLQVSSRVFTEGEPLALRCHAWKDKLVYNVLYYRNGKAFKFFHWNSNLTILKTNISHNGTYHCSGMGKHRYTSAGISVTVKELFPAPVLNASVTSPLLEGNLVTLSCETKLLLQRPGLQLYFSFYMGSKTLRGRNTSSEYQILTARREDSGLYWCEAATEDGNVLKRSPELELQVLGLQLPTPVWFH
T3 sequence (P08637 17-208 F176V): as the sequence (P08637 17-208) above, with F160V counted along it

B1: A375-SCF057aPh/B167-Lamlib (antibody, human IgG1, lambda)
heavy: EVQLVESGGGLVKPGGSLRLSCAASGFTFSTFTMNWVRQAPGKGLEWVSSISSKSTYIEYADSFKVRFTISRDNAKNSLYLQMNSLRAEDTAVYYCARYGAKNFLNWVFDYWGQGTLVTVSSASTKGPSVFPLAPSSKSTSGGTAALGCLVKDYFPEPVTVSWNSGALTSGVHTFPAVLQSSGLYSLSSVVTVPSSSLGTQTYICNVNHKPSNTKVDKRVEPKSCDKTHTCPPCPAPELWNGPSVFLFPPKPKDTLMISRTPEVTCVVVDVSDEDPEVKFNWYVDGVEVHNAKTKPREEQYNSTYRVVSVLTVLHRDWLNGKEYKCKVSNKALPKPIEKTISKAKGQRREPQVYTLPPSREEMTKNQVSLTCLVKGFYPSDIAVEWESNGQPENNYKTTPPVLDSDGSFFLYSKLTVDKSRWQQGNVFSCSVMHEALHNHYTQKSLSLSP
light: QSALTQPPSASGSPGQTVTISCTGTRYDVGYYEYVSWYQQHPGKAPKLMIYETSKRLSGVPDRFSGSKSGNTASLTVSGLQAEDEADYYCSSYRYEHQVSFGGGTKLTVLGQPKAAPSVTLFPPSSEELQANKATLVCLISDFYPGAVTVAWKADSSPVKAGVETTTPSKQSNNKYAASSYLSLTPEQWKSHRSYSCQVTHEGSTVEKTVAPTECS
In the case of B1, the relative binding amount was 0.79 with hFcgRIIaR [1]; 0.64 in the assay with hFcgRIIaH [2]; 0.01 in the assay with hFcgRIIIaV [3]; 0.03 with hFcgRIa [4]; 3.15 in the assay with hFcgRIIb [5]; -0.02 in the assay with hFcgRIIIaF [6]. In addition, the dissociation constant Kd with human FcRn was determined as 909 nM. In addition, the “binding per 1RU of antibody” value was 0.0364 RU with hFcgRIIaR [7]; 0.0365 RU in the assay with hFcgRIIaH [8]; 0.0005 RU in the assay with hFcgRIIIaV [9]; 0.0021 RU with hFcgRIa [10]; 0.0345 RU in the assay with hFcgRIIb [11]; -0.0003 RU with hFcgRIIIaF [12].

B2: A375-SCF060a/B167-Lamlib (antibody, human IgG1, lambda)
heavy: EVQLVESGGGLVKPGGSLRLSCAASGFTFSTFTMNWVRQAPGKGLEWVSSISSKSTYIEYADSFKVRFTISRDNAKNSLYLQMNSLRAEDTAVYYCARYGAKNFLNWVFDYWGQGTLVTVSSASTKGPSVFPLAPSSKSTSGGTAALGCLVKDYFPEPVTVSWNSGALTSGVHTFPAVLQSSGLYSLSSVVTVPSSSLGTQTYICNVNHKPSNTKVDKRVEPKSCDKTHTCPPCPAPELWNGPSVFLFPPKPKDTLMISRTPEVTCVVVDVSDEDPEVKFNWYVDGVEVHNAKTKPREELYNSTYRVVSVLTVLHRDWLNGKEYKCKVSNTALPKPIEKTISKAKGQPREPQVYTLPPSREEMTKNQVSLTCLVKGFYPSDIAVEWESNGQPENNYKTTPPVLDSDGSFFLYSKLTVDKSRWQQGNVFSCSVMHEALHNHYTQKSLSLSP
light: QSALTQPPSASGSPGQTVTISCTGTRYDVGYYEYVSWYQQHPGKAPKLMIYETSKRLSGVPDRFSGSKSGNTASLTVSGLQAEDEADYYCSSYRYEHQVSFGGGTKLTVLGQPKAAPSVTLFPPSSEELQANKATLVCLISDFYPGAVTVAWKADSSPVKAGVETTTPSKQSNNKYAASSYLSLTPEQWKSHRSYSCQVTHEGSTVEKTVAPTECS
notes: copies: 2 + 2
As for B2, the relative binding amount with hFcgRIIaR [1] turned out to be 0.99; with hFcgRIIaH [2] it was 0.82; with hFcgRIIIaV [3] it was 0.01; with hFcgRIa [4], 0.03; with hFcgRIIb [5], 4.31; with hFcgRIIIaF [6], 0.05. This molecule also yielded a Kd in the assay with human FcRn of 1010 nM. The “binding per 1RU of antibody” value was found to be 0.0459 RU in the assay with hFcgRIIaR [7]; 0.0463 RU with hFcgRIIaH [8]; 0.0008 RU in the assay with hFcgRIIIaV [9]; 0.0021 RU with hFcgRIa [10]; 0.0472 RU in the assay with hFcgRIIb [11]; 0.0011 RU with hFcgRIIIaF [12].

B3: A375-SCF059a/B167-Lamlib (antibody, human IgG1, lambda)
heavy: EVQLVESGGGLVKPGGSLRLSCAASGFTFSTFTMNWVRQAPGKGLEWVSSISSKSTYIEYADSFKVRFTISRDNAKNSLYLQMNSLRAEDTAVYYCARYGAKNFLNWVFDYWGQGTLVTVSSASTKGPSVFPLAPSSKSTSGGTAALGCLVKDYFPEPVTVSWNSGALTSGVHTFPAVLQSSGLYSLSSVVTVPSSSLGTQTYICNVNHKPSNTKVDKRVEPKSCDKTHTCPPCPAPELLNGPSVFLFPPKPKDTLMISRTPEVTCVVVDVSDEDPEVKFNWYVDGVEVHNAKTKPREEQYNSTYRVVSVLTVLHRDWLNGKEYKCKVSNKALPKPIEKTISKAKGQPREPQVYTLPPSREEMTKNQVSLTCLVKGFYPSDIAVEWESNGQPENNYKTTPPVLDSDGSFFLYSKLTVKKSRWQQGNVFSCSVMHEALHNHYTQKSLSLSP
light: QSALTQPPSASGSPGQTVTISCTGTRYDVGYYEYVSWYQQHPGKAPKLMIYETSKRLSGVPDRFSGSKSGNTASLTVSGLQAEDEADYYCSSYRYEHQVSFGGGTKLTVLGQPKAAPSVTLFPPSSEELQANKATLVCLISDFYPGAVTVAWKADSSPVKAGVETTTPSKQSNNKYAASSYLSLTPEQWKSHRSYSCQVTHEGSTVEKTVAPTECS
notes: copies: 2 + 2
On to B3, for which the relative binding amount with hFcgRIIaR [1] is 0.69; in the assay with hFcgRIIaH [2] it was 0.88; with hFcgRIIIaV [3], 0.03; with hFcgRIa [4], 0.47; in the assay with hFcgRIIb [5], 3.27; with hFcgRIIIaF [6] it was 0.05. In the assay with human FcRn, the affinity, expressed as Kd, was 1030 nM. In addition, the “binding per 1RU of antibody” value was 0.0319 RU with hFcgRIIaR [7]; 0.0502 RU with hFcgRIIaH [8]; 0.0021 RU with hFcgRIIIaV [9]; 0.038 RU in the assay with hFcgRIa [10]; 0.0358 RU with hFcgRIIb [11]; 0.001 RU with hFcgRIIIaF [12].

B4: A375-SCF059aPh/B167-Lamlib (antibody, human IgG1, lambda)
heavy: EVQLVESGGGLVKPGGSLRLSCAASGFTFSTFTMNWVRQAPGKGLEWVSSISSKSTYIEYADSFKVRFTISRDNAKNSLYLQMNSLRAEDTAVYYCARYGAKNFLNWVFDYWGQGTLVTVSSASTKGPSVFPLAPSSKSTSGGTAALGCLVKDYFPEPVTVSWNSGALTSGVHTFPAVLQSSGLYSLSSVVTVPSSSLGTQTYICNVNHKPSNTKVDKRVEPKSCDKTHTCPPCPAPELWNGPSVFLFPPKPKDTLMISRTPEVTCVVVDVSDEDPEVKFNWYVDGVEVHNAKTKPREEQYNSTYRVVSVLTVLHRDWLNGKEYKCKVSNKALPKPIEKTISKAKGQPREPQVYTLPPSREEMTKNQVSLTCLVKGFYPSDIAVEWESNGQPENNYKTTPPVLDSDGSFFLYSKLTVKKSRWQQGNVFSCSVMHEALHNHYTQKSLSLSP
light: QSALTQPPSASGSPGQTVTISCTGTRYDVGYYEYVSWYQQHPGKAPKLMIYETSKRLSGVPDRFSGSKSGNTASLTVSGLQAEDEADYYCSSYRYEHQVSFGGGTKLTVLGQPKAAPSVTLFPPSSEELQANKATLVCLISDFYPGAVTVAWKADSSPVKAGVETTTPSKQSNNKYAASSYLSLTPEQWKSHRSYSCQVTHEGSTVEKTVAPTECS
notes: copies: 2 + 2
On to B4, for which the relative binding amount with hFcgRIIaR [1] was 0.69; in the assay with hFcgRIIaH [2], 0.59; with hFcgRIIIaV [3], 0.04; with hFcgRIa [4], 0.11; in the assay with hFcgRIIb [5], 2.66; in the assay with hFcgRIIIaF [6], 0.01. The equilibrium dissociation constant (Kd) with human FcRn amounted to 1050 nM. The “binding per 1RU of antibody” value came to 0.0319 RU with hFcgRIIaR [7]; 0.0332 RU with hFcgRIIaH [8]; 0.0028 RU with hFcgRIIIaV [9]; 0.0089 RU in the assay with hFcgRIa [10]; 0.0291 RU with hFcgRIIb [11]; 0.0003 RU with hFcgRIIIaF [12].
